The values that follow are results of earlier work, collected in PMC9897510.

Data set [1] deals with FOXM1c (Homo sapiens) (UniProt Q08050).
Data set [2] addresses FOXM1b (Homo sapiens) (UniProt Q08050).
Data set [3] has as its target atrial natriuretic factor receptor (UniProt P16066).
The target of data set [4] is FhuA (Escherichia coli) (UniProt P06971).
Sequence of UniProt P06971 (P06971 34-747): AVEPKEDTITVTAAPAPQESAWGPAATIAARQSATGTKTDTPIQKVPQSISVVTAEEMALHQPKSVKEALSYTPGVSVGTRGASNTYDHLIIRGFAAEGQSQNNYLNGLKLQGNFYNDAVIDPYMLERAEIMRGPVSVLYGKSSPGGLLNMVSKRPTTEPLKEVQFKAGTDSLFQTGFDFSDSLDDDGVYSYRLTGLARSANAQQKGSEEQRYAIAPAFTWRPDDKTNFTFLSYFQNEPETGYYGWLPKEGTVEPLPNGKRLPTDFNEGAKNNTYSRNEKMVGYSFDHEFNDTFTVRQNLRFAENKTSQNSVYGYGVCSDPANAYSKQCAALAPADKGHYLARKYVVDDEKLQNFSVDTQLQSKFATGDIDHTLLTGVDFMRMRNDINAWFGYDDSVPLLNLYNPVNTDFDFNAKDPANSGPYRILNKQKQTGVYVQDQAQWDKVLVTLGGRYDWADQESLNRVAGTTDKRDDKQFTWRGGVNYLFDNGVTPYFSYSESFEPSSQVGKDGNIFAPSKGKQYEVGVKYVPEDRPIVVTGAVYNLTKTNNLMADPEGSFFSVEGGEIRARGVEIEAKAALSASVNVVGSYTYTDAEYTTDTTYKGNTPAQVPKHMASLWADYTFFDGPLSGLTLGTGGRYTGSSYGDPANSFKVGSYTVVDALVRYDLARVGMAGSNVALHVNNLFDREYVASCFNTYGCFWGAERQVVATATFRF

Sequence of UniProt P16066 (P16066 33-1061): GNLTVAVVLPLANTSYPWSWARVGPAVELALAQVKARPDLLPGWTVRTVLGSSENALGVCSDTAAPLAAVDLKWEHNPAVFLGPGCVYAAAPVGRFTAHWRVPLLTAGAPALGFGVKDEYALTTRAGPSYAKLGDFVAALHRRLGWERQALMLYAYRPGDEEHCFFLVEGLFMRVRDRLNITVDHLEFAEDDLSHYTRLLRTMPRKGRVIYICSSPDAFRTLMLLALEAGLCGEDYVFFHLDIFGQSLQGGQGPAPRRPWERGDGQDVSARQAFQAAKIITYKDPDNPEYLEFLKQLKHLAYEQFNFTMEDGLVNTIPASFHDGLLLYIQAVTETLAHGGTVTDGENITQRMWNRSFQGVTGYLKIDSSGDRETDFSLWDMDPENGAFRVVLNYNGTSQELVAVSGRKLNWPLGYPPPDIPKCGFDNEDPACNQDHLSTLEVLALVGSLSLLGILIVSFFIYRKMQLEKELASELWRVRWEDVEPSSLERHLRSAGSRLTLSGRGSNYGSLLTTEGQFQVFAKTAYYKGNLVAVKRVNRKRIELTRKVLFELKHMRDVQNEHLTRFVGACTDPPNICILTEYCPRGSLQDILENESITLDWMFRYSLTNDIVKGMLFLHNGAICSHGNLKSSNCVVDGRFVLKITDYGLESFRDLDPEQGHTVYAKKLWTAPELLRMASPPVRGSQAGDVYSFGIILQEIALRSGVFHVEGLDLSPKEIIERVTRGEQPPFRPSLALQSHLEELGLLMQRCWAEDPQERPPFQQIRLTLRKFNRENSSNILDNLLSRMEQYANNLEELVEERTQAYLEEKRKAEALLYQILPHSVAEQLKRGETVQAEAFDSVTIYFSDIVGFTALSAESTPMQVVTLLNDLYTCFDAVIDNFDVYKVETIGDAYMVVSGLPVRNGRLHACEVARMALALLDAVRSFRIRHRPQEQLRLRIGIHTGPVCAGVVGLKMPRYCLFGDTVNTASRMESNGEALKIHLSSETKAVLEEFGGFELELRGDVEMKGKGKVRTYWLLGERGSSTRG

For orientation: Ki means a measure of affinity in units of concentration, obtained from inhibition or displacement. thiostrepton (from UniProt P0C8P8): the Ki in data set [1] was 11 µM; in data set [2], 31 µM. As usually defined, the Kd is a measure of binding affinity in units of concentration. Regarding anantin (from UniProt Q7M0J9), the Kd in data set [3] is 0.6 µM.

As for Microcin J25 (from UniProt Q9X2V7), the dissociation constant Kd in data set [4] is 1.2 µM.
